# Test: soluble on expression in E. coli; label from the status in PepcDB or PDB records
row,Sequence,soluble on expression in E. coli
1,MGSDKIHHHHHHMKYPNETSGTADYTVIKGLVTSNGDTGHDSIALDTATQLTAEDVKHFRDYGFSIVGRYLTGTVGTDYKPKNLTSTEIKTILDGGMKFFPIYEDGGYVESYFTASQGQKDAQTAIKTALDLELPAGTVIYFAVDVDFQDGDIDGTVIPYIKAIQNILSQSIYKTGIYGTRNVCLHAERVGIGFSFVANMSYGWSGNLGFKMPDNWAFDQFVEYPIYGIDIDQTASSGLDKGISGVAQTTPEVQTGYLANQLLSVFPDYHNLFGTINWTVSAPEQHLSTPIADYYITLEDKWIATVVDDKTGTLTIQDAKMLNQTADVMKQFESAMSSYDIGDLSGAFNKLAPMIGNGAIKAGLAIRDGMVGFKIAIEGSFESSTSSSSVEGKYTLTLETYIHRDQVPKNAYDPVYQPVTEPNPVFAVDLGKVATTVVIGLLVSSMLPEVGGGAALVELFNVVKTIFAVA,not soluble
2,MAHHHHHHMSRLMPHYSKGKTAFLCVDLQEAFSKRIENFANCVFVANRLARLHEVVPENTKYIVTEHYPKGLGRIVPEITLPKTAHLIEKTRFSCVVPQVEELLEDVDNAVVFGIEGHACILQTVADLLDMNKRVFLPKDGLGSQKKTDFKAAIKLMSSWGPNCEITTSESILLQMTKDAMDPNFKRISKLLKEEPPIPL,soluble
3,MSLSKILIAGCGDLGLELARRLTAQGHEVTGLRRSAQPMPAGVQTLIADVTRPDTLASIVHLRPEILVYCVAASEYSDEHYRLSYVEGLRNTLSALEGAPLQHVFFVSSTGVYGQEVEEWLDEDTPPIAKDFSGKRMLEAEALLAAYSSTILRFSGIYGPGRLRMIRQAQTPEQWPARNAWTNRIHRDDGAAFIAYLIQQRSHAVPERLYIVTDNQPLPVHDLLRWLADRQGIAYPAGATPPVQGNKKLSNARLLASGYQLIYPDYVSGYGALLAAMREGHHHHHH,soluble
4,MSLRILVNGLLPLDSGKTTFSLSIIRLFNQVGIRLFPFKPIAGHNAWYSFNTLIRSEELGILVGNDALKYYDETKYDIRRINPFAVLFVPIDLEKISYNVSLYNMIMEYGFPYLIRLSDCINGTDQYFVNSSADIYVPKSMLKFTRNLALKFNAKLYDKMREIIDASPQLVDNCTIDVFRNYENVIIESYNDSASPTYNSTNVDYVFTVSPTKAFLIKGQEFKKALSLFSIPPWNVRVSTLMKYLKIGKSFEIDVGERVAKDEILDILLKSEGHHHHHH,not soluble
5,MNSRSTAEITDYLNEKITKKDALELFSLPIHAVGRIADEIRKVKCGDLVTFVNDTNINYTNICLSKCRFCAFYAREKGYVLSHEEILRKVGYAVKMGATQIMLQGGMNPDLGLEWFEELFRKIKARFSSVHIHSLSPPEIVFLAKLERSSIREVLDRLKAAGLDSLPGGGAEILVDSVRRKISPNKCSSDEWLRVMETAHSLNMPTTATMMFGHVESDGDIVEHLIKIRELQEKTGGFTAFIPWTFQPGNTELYAEIKRPVSPLRYLQVLAISRIVLNNFRNIQASWLTQGFEIATLSLFFGANDFGGTMLEENVVRATGKDFRPAKIEEIVKAVKAVGRPVALRDTYYNILEWF,not soluble
6,SFQRALPRQPVPSAQETVRKYLESVRPVLGDDAFDRATALANDFLRLHAPRLQLYLQLKSWCTSNYVSDWWEEFVYLRSRGSLINSTYYMMDFLYVTPTPLQAARAGNAVHTLLLYRHLLNRQEISPTLLMGMRPLCSAQYERMFNTTRIPGVEKDHLRHLQDSRHVAVFHRGRFFRVGTHSPNGLLSPRALEQQFQDILDDPSPACPLEEHLAALTAAPRSMWAQVRESVKTHAATALEAVEGAAFFVSLDSEPAGLTREDPAASLDAYAHALLAGRGHDRWFDKSFTLIVFSNGKLGLSVEHSWADCPVSGHLWEFTLATECFQLGYATDGHCKGHPDPTLPQPQRLQWDLPEQIQPSISLALRGAKTLSGNIDCHVFPFSHFGKSFIKCCHVSSDSFIQLVLQLAHFRDRGQFCLTYESAMTRLFLEGRTETVRSCTREACQFVRAMDNKETDQHCLALFRVAVDKHQALLKAAMSGQGIDRHLFALYIMSRLLHMQSPFLTQVQSQQWLLSTSQVPVQQTHLIDVHNYPDYVSSGGGFGPAHDHGYGISYIFMGENAITFHISSKKSSTETDSHRLGQHIENALLDVASLFRVGQHFKRQFRGENSDYRYNFLSCKTVDPNTPTSSTNL,soluble
7,MGSDKIHHHHHHMNISNSQVNRLRHFVRAGLRSLFRPEPQTAVEWADANYYLPKESAYQEGRWETLPFQRAIMNAMGSDYIREVNVVKSARVGYSKMLLGVYAYFIEHKQRNTLIPAGFVAVFNSDESSWHLVEDHRGKTVYDVASGDALFISELGPLPENVTWLSPEGEFQKWNGTAWVKDAEAEKLFRIREAEETKNSLMQVASEHIAPLQDAVDLEIATEEETSLLEAWKKYRVLLNRVDTSTAPDIEWPTNPVRE,not soluble
8,GKNLNWDFDANISFNRNKISGLPGDQFAQGWSKADNVFLQRNGMPIGTIYGFVEDGFYDNIAEVRADPFYAKESEAVCKAMVGEVKYKDFDGVAGITNADRQVIGDTNPDFTFGMTHNFTYKNFSLSFFLQGCVGGDIFNANLLEVTMSGIGNIPQNIYESRWTPENRENAKWPKAYAGYGRTMKLSDRYVEDGSYLRMKNINLGYKFISPFKGIESINLFASVSNVFTISGYSWYDPDVNSFGSDASRRGVDLFSYPSSRTFSFGLQCTF,not soluble
9,IVGLRVGAAAEFALSNDGFYLAPGLAYTMRGAKMESLSETTTRLHYLQIPVNAGMRFSFADNMAISLEAGPYFAYGVAGTIKTKVAGVTASVDAFGDNGYNRFDLGLGLSAALSYDRYYVQIGYEHGLLNMLKDAPDKTSLRNHDFFVGLGVRF,not soluble
10,MNKIIISIGREFGSGGRRIGELLAKELEVPCYDRHLIEEAACRSGFETKELEEADEMKANRFLFKVPAKSNQYTGYGKPMNDTLFAIQSELIRKYADAGSCVIVGRCADKVLEKQEGLISVFIYAPLEARVEEIRRRYETDGEEALYLVRQADKIRRNYYNYYAKKKWGDRSSYDLMIDSSHFTDREVAAMIRAVSEERKAEWEENKFSTPQG,not soluble
11,MTPPEIDFFPDFIADPHRLFNHLKDSVLWDERMRARKTASFGAPYDYSQITYPAVPMPEALEQLCGPIEQLLGFRPNNCLLNCYPDGHSSMGFHSDANEQLVTGTGVVIVSLGHARAMVFRHKESGATFDYSLASGSLLHMSDELQKHWLHAIPKAPDAGERISLSFRQLKTGLEHHHHHH,soluble
12,MDEGMQIVGAVSGLSTPFNQNVSLECYNGILSMLLNGAPLADILHALVLKIEDQRLGTHASVLLLSEDGKRVLTGAAPHLPDSYNQVIHGVEIGPEVGSCGTAAYTGQRVIVEDIEHHPYWALYKSFALVHGLRACWSEPIKDTQGKVLGTFAMYYKEIKSPTVADLTLIAEAARLASLAIERSRSLEFQRLAVKIFDRLPLALVITNASHSVLYANDAFKLMVCLQPDDILAFNPEQFFSPSEPHEIASLFNHLSEGKMWQGELVGLRNNGETFYLDLTVTVFRESHSADLGFAWLFSDVSERKKAAQLIKYQANNDSLTGLANRNALFRQIQELINADSLTPGFSFMLMDLDNFKQVNDTYGHDKGDVLLVQMVEQVKICLDPQAVFARLGGDEFAILLPGVVTQRELSQLADKINKQVYRRYELSHDKGVYSSVSIGIARFPEDALDLEQLLNCADQAMYISKANGRNRYHFFTEQMQQNAERIANLHTLLKQALEQNAFELYFQPIVDATTGLIVRAEVLLRWQHEGQFISPDEFIPIAENSGLIVSIGRCVRQAVMQTIVEMQALGWPMSLAINVSTFEFWSHELQDEFCDSFTDIIEGLGVEDFPYELITLEITESLLMKKHAHLIQVLNELRARGIKISLDDFGTGYSSLSYLANFPIDQIKIDKSFIDRLAEGERHLALIEAIVRLSHALNLRVTAEGVETQEQLQVMMDNHIQEIQGYLFYKPIPKAVFFELLAKQAVISPHSLEHHHHHH,not soluble
13,MDHQLSQHDIFISQDGQLQLTVAVDTETVWLTQAEICVLFDRERSVITKHINNVFKEGELERDSVCAIFARTADDGKTYQTQYFNLDVIISVGYRVKSKRGVQFRQWATNTLKQHLLQGYTLNQQRLVQRGIEFNQALALLSKTLTNQALINPDGQAVVNVIAEYARSWSLLQGYDEQSLTEITHKQQQMQPLALDEVLAAIAALKTNLIAKGEATDLFAQLRGNGLASSIATIEQGFGGEWFYPNVASRAAHLLYFIIKNHPFADGNKRTGSFLFLWYLQQNQHLLAKPVSEQINDTTLVALALLVAESLPDQKELMIRLIEHFILLKDSEAAALEHHHHHH,soluble
14,FERGHEFSFAQAVRLLRLLAAAQGREGACPCGVRVRPELSLSFPVADVARIERQSDGYRITARFLGLYGPSSPLPTFYTEELIDEEREDGSASRDFLDVLSHRIFDLWVAGDAKYRLFNRVVEDGSGDDLERLFCLAGLDLAQGQTVLPESGRWLRYVGLLGQVPRSALGLRTMVADALGVPVEVIPCQHRQVSIPPGQRLAVGIAASSLGIDTVVGTNLDDRLGMFRLCLGPLSREQFADLLPGAPGRSTLDLIVELYLDAPLAWDVELTLAPGETPEARLGACRGARVGWDTWLGV,not soluble
15,MAHHHHHHMAHAVGFACPHMADPSMVRNVIGVRGRALSVVVDSTNAAMAARKHYDCDDIYGMELQDQNGDGSTLESHWSQRHAKDELMAPIGGAGDHTELTLAAFAELGCMRVNWKLAEPMGWGKKSGCELLQSKRSAPNMSEYSHIFCNRDEVVERCASDRYSRGFCRRSIIEFSKQHSMDSCPIIDPAMDVRDLEAVFEKEEYLSARPGDKPSSWCLDTLPTNTTDARYPEETYLSAATQAELKCLGMQVHLKNPEKRNVRWLPCTEEETITWDTPPYNKENVICPKYAEVCTISATGGSVIPVVSWDGEARVWSRTVPPASTGQGLPGASVPVAESIDPGRGTHTKDVVTAIPERNLLLQGPWRLSVLLLLLE,soluble
16,MRQIFPGLDPNTYVQHPLHSSERMWPETNCYIDLWIEVLASKGLSPEAMFGFTLTQDFEGDQFTFFKVPLEDLEALYGVRATELAIFDKVEDHIATQLERGRICLIEMDSFYMPDTHGVGYQKEHGKTTVAINRLDLEKRELDYFHNAGFFHLSGEDFDGLFQHHLAETDPPFLPYTEFAKFADSNPSPAHIRKTAERLLKFHFSRRPSANPVRAFAKVFPAQVEKVADRPFGFFHKYAFNTLRQLGANFELAASHLEWLDKQGFSDARDHALKISEVAKTVQFQLARAVTRRKFDALATVLDPAADAWDGLMESLGEKLSDASEAA,soluble
17,FGLKNNPSSSRPEGLLFYEYQQAKPKQQTAHFALDQMIYEINQSFGYEIIQRAKKLAAS,not soluble
18,MAMGKPMQVSRYWRHFREKYRLIGGKCENGHLLFPKRPICPICGSRNIEEFQFSGKGKVITWTIVRNPPSGFEYYKPYPLALVQLEEGPVVLAQLTDVEPEEIKEGMEVEMVTRKIREFDEDGLILYGYKFRPIIKSELEHHHHHH,not soluble
19,GPGSMVVKDISLADWGRKELDIAETEMPGLMAAREEFGKSQPLKGARISGSLHMTIQTAVLIETLKVLGAEVRWASCNIFSTQDHAAAAIAATGTPVFAVKGETLEEYWTYTDQIFQWPDGEPSNMILDDGGDATMYILIGARAEAGEDVLSNPQSEEEEVLFAQIKKRMAATPGFFTKQRAAIKGVTEETTTGVNRLYQLQKKGLLPFPAINVNDSVTKSKFDNKYGCKESLVDGIRRGTDVMMAGKVAVVCGYGDVGKGSAQSLAGAGARVKVTEVDPICALQAAMDGFEVVTLDDAASTADIVVTTTGNKDVITIDHMRKMKDMCIVGNIGHFDNEIQVAALRNLKWTNVKPQVDLIEFPDGKRLILLSEGRLLNLGNATGHPSFVMSASFTNQVLGQIELFTRTDAYKNEVYVLPKHLDEKVARLHLDKLGAKLTVLSEEQAAYIGVTPQGPFKSEHYRY,soluble
